Test results as given in patent US20150064134A1.

Key:
Test in all cases: cell-based or functional assay
TrkA(h) (human) = TrkA(h) (human) (UniProt P04629)
Abl(Y253F)(h) (human) = Abl(Y253F)(h) (human) (UniProt P00519)
CHK2(R145W)(h) (human) = CHK2(R145W)(h) (human) (UniProt O96017)
Haspin(h) (human) = molecular target: T1, Haspin(h) (human) (UniProt Q8TF76)
T1 sequence (looked up): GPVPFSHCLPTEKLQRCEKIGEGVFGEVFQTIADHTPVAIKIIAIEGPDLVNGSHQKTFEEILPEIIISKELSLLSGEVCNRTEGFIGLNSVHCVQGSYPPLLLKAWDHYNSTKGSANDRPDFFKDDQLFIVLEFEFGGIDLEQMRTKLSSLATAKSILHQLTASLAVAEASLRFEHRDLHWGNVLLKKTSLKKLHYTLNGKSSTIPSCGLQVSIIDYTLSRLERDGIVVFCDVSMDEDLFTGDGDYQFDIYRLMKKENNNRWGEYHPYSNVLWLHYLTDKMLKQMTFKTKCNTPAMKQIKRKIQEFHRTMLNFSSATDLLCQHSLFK

Tec(h) activated (human) = molecular target: T2, Tec(h) activated (human) (UniProt P42680)
T2 sequence (looked up): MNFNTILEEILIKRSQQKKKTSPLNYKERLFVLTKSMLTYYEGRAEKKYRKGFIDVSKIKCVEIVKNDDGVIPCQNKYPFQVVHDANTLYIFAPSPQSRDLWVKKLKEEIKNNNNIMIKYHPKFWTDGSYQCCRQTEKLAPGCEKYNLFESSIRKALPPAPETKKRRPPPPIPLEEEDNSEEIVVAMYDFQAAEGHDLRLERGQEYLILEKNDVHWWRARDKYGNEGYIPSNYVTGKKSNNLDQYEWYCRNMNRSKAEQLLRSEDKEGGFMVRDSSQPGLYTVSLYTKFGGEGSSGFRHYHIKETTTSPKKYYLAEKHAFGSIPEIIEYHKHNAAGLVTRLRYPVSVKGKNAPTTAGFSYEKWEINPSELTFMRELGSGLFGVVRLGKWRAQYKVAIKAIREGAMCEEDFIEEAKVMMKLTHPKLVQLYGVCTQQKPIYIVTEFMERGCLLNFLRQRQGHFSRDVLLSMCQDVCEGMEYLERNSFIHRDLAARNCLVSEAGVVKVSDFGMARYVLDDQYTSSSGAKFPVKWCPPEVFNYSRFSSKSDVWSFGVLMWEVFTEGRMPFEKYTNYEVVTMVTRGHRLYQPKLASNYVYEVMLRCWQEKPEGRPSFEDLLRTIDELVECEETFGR

MSK2(h) (human) = MSK2(h) (human) (UniProt O75676)
SRPK1(h) (human) = SRPK1(h) (human) (UniProt Q96SB4)
EphB2(h) (human) = EphB2(h) (human) (UniProt P29323)
DAPK2(h) (human) = DAPK2(h) (human) (UniProt Q9UIK4)
STK33(h) (human) = STK33(h) (human) (UniProt Q9BYT3)
BrSK1(h) (human) = molecular target: T3, BrSK1(h) (human) (UniProt Q8TDC3)
T3 sequence (looked up): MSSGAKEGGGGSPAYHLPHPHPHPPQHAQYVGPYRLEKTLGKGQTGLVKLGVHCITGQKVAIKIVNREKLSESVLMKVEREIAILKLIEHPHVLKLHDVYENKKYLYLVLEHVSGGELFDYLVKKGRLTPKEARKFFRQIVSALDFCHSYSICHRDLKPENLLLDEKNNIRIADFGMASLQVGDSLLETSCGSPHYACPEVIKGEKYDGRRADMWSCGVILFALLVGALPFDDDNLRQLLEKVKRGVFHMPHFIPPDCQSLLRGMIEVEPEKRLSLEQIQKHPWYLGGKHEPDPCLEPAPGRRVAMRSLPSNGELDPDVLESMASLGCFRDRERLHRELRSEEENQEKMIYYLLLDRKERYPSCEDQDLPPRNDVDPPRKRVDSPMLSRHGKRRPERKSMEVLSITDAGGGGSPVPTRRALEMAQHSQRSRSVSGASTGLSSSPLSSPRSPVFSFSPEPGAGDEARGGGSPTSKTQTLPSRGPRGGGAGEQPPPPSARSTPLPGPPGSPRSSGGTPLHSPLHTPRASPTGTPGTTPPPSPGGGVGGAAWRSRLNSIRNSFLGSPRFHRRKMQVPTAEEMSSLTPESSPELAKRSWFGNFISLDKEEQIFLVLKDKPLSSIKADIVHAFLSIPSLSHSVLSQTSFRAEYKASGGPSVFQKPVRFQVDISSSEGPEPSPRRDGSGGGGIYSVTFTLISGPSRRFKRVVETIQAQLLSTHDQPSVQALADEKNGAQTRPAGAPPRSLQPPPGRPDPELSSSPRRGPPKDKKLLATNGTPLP

Fer(h) (human) = Fer(h) (human) (UniProt P16591)
Rsk1(h) (human) = Rsk1(h) (human) (UniProt Q15418)
CaMKIIβ(h) (human) = CaMKIIβ(h) (human) (UniProt Q13554)
Abl(Q252H)(h) (human) = Abl(Q252H)(h) (human) (UniProt P00519)
TSSK1(h) (human) = molecular target: T4, TSSK1(h) (human) (UniProt Q9BXA7)
T4 sequence (looked up): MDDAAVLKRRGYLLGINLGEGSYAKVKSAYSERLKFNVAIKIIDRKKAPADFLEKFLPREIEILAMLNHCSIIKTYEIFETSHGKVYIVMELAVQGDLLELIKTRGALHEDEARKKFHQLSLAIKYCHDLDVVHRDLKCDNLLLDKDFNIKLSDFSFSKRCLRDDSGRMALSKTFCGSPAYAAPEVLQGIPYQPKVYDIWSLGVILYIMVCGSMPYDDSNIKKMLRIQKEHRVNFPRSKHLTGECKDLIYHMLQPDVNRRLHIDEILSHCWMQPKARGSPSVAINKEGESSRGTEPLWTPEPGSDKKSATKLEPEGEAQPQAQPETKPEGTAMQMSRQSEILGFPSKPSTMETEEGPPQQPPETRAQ

CaMKIIβ(h) (human), sequence (Q13554 whole entry): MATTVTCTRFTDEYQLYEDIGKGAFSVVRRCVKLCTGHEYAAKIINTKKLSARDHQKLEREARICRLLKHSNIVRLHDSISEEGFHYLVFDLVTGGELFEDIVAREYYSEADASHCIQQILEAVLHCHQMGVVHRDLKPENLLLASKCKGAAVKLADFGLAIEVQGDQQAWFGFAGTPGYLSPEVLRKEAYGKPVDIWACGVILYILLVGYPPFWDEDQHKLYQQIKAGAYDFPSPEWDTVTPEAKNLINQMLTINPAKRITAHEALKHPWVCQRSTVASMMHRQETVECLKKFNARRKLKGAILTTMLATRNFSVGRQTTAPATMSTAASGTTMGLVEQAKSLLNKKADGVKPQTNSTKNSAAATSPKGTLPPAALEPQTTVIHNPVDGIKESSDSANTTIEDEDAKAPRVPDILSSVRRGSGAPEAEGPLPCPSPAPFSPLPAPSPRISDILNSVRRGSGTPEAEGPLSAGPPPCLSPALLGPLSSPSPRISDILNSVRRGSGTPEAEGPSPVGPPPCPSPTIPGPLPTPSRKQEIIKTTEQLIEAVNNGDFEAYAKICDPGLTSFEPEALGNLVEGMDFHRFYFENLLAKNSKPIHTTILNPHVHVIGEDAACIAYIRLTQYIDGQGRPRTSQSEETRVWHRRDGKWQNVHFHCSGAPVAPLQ
Abl(Y253F)(h) (human), sequence (P00519 27-1130 Y253F limits assumed): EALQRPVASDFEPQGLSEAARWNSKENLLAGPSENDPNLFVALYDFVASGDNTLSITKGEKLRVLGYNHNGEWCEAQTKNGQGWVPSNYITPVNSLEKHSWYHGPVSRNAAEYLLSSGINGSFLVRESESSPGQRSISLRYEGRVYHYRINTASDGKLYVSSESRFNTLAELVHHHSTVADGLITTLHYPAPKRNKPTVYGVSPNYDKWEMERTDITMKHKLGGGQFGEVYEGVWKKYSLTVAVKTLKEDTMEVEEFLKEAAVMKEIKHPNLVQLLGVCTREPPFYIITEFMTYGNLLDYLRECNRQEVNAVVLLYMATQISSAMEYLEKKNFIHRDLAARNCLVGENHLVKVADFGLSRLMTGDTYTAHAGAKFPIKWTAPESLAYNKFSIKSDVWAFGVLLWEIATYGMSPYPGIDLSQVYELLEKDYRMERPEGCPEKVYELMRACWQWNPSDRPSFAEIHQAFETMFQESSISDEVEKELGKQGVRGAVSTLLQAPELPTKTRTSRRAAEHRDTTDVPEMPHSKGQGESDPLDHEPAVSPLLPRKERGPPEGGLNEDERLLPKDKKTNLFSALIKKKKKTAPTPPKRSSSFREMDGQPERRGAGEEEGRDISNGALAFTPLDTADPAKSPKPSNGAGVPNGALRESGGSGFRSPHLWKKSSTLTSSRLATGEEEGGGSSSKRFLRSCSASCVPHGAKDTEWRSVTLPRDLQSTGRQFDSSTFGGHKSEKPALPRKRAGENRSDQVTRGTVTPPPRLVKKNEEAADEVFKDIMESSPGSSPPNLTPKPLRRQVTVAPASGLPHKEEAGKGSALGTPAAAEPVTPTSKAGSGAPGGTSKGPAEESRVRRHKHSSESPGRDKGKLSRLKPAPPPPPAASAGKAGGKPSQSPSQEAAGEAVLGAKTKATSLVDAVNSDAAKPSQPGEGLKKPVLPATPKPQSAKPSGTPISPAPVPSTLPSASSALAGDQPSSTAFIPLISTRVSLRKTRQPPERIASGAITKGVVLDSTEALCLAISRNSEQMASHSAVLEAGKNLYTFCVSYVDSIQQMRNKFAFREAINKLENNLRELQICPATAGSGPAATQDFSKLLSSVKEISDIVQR
Abl(Q252H)(h) (human), sequence (P00519 27-1130 Q252H limits assumed): as the sequence (P00519 27-1130 Y253F limits assumed) above, with Q226H, F227Y counted along it
CHK2(R145W)(h) (human), sequence (O96017 5-543 R145W limits assumed): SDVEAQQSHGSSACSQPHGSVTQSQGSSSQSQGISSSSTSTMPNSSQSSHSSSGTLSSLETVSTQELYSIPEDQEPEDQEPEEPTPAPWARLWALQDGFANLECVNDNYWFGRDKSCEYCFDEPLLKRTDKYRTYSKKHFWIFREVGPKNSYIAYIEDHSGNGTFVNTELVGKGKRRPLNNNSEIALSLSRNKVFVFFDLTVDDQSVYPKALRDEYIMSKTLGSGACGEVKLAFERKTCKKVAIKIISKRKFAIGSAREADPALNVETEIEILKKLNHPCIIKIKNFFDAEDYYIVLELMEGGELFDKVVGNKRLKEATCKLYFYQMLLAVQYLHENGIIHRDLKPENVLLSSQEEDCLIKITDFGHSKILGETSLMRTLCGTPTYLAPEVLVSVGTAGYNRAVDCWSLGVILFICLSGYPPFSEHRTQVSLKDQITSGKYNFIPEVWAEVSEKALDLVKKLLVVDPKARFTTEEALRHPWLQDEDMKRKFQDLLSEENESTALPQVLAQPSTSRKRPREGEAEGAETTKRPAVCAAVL
EphB2(h) (human), sequence (P29323 565-986 limits assumed): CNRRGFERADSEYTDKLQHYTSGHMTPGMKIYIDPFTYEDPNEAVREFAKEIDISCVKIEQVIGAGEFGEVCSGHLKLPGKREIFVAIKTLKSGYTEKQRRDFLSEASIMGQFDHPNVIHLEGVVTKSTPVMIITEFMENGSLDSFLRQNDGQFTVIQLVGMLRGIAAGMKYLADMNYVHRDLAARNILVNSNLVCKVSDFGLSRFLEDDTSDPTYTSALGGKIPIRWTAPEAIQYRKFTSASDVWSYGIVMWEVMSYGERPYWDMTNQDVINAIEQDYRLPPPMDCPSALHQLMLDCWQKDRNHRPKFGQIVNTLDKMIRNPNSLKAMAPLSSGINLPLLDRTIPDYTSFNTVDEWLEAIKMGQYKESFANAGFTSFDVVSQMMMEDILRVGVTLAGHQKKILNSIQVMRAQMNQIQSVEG
Rsk1(h) (human), sequence (Q15418 whole entry): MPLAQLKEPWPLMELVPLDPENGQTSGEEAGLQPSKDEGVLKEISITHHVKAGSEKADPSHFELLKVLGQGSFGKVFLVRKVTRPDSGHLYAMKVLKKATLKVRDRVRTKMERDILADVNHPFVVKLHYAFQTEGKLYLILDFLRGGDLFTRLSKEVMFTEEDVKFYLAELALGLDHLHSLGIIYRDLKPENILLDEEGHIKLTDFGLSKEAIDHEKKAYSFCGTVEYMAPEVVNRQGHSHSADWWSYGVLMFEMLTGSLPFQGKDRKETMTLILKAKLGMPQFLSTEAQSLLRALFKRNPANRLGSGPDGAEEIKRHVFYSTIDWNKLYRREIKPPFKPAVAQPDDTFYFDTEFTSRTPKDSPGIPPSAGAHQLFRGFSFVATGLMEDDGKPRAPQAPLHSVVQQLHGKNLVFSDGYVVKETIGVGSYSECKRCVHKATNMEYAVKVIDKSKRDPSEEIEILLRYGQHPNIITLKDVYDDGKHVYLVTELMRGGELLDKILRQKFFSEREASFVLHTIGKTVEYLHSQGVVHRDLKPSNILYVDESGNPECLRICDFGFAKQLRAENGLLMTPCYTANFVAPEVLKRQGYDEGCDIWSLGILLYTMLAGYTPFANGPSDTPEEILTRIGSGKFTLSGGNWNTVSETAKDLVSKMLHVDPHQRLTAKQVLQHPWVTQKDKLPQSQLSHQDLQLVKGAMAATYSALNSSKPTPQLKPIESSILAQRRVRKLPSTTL

Substance	% activity at 100 µM (TrkA(h) (human))	% activity at 100 µM (Abl(Y253F)(h) (human))	% activity at 100 µM (CHK2(R145W)(h) (human))	% activity at 100 µM (Haspin(h) (human))	% activity at 100 µM (Tec(h) activated (human))	% activity at 100 µM (MSK2(h) (human))	% activity at 100 µM (SRPK1(h) (human))	% activity at 100 µM (EphB2(h) (human))	% activity at 100 µM (DAPK2(h) (human))	% activity at 100 µM (STK33(h) (human))	% activity at 100 µM (BrSK1(h) (human))	% activity at 100 µM (Fer(h) (human))	% activity at 100 µM (Rsk1(h) (human))	% activity at 100 µM (CaMKIIβ(h) (human))	% activity at 100 µM (Abl(Q252H)(h) (human))	% activity at 100 µM (TSSK1(h) (human))
MMI-0400 (peptide)	17%	78%	31%	36%	29%	52%	96%	22%	16%	52%	76%	108%	54%	11%	98%	79%
MMI-0300 (peptide)	25%	86%	33%	48%	56%	56%	90%	18%	32%	45%	67%	130%	46%	2%	82%	79%
MMI-0500 (peptide)	24%	29%	3%	25%	33%	14%	80%	70%	3%	16%	72%	196%	34%	3%	40%	46%
